Molecular target: T1, DitR (Stenotrophomonas maltophilia K279a) (UniProt B2FL17)
T1 sequence: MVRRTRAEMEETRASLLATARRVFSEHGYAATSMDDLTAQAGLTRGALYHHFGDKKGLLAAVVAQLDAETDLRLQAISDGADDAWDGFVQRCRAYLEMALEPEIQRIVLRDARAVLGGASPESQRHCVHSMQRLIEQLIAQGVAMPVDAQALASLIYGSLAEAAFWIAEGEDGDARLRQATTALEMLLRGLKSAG
Assay: DNase I footprinting

| Sequence | binding |
| --- | --- |
| GGGGGCGGCGAACAGGTCGCGGTAGGGGGTGGCCATCGGGATCTCCAGGGCAGCGGCTTGCCTGGCGCTCCCGGCGCCACGACAATACATACAGAGCGTATGAATAAGAGCCTACATTCATACGCGTCGTATGTAAATAATCATGCACTGCGTATGTAAGGAGCTCCGGATGGTCCGTCGCACCCGCGCCGAAATGGAAGAAAC (double strand) [mfsBC promoter fragment, 204 bp, Box II] | binds |
| GGGGGCGGCGAACAGGTCGCGGTAGGGGGTGGCCATCGGGATCTCCAGGGCAGCGGCTTGCCTGGCGCTCCCGGCGCCACGACAATACATACAGAGCGTATGAATAAGAGCCTACATTCATACGCGTCGTATGTAAATAATCATGCACTGCGTATGTAAGGAGCTCCGGATGGTCCGTCGCACCCGCGCCGAAATGGAAGAAAC (double strand) [mfsBC promoter fragment, 204 bp, Box I] | binds |

From publication PMC9342713
